Test results published in paper PMC12670994.
Values joined by “and” are separate entries in the source; they are usually repeats but may differ in a detail not shown here. Identical values can stand only once.

Columns and labels:
[1] = target: SARS-CoV-2 spike on Omicron pseudovirus (GFP-expressing) (SARS-CoV-2 Omicron) (UniProt P0DTC2); test: flow cytometry, bead-bound aptamer; settings: 5' hexynyl-iSp18-iSp18-iSp18 (PEG spacer)
[2] = target: SARS-CoV-2 spike on Omicron pseudovirus (GFP-expressing) (SARS-CoV-2 Omicron) (UniProt P0DTC2); test: flow cytometry, bead-bound aptamer

ATCCAGAGTGACGCAGCACCGACCTTGTGCTTTGGGAGTGCTGGTCCAAGGGCGTTAATGGACACGGTGGCTTAGT [Omicron PEG36 Particle Aptamer]
Kd [1]: 0.011 pM and 0.017 pM and 0.073 pM | Kd ([2]; 5' hexynyl-iSp18-iSp18-iSp18 (PEG spacer)): 0.007 pM

TTTTTATCCAGAGTGACGCAGCACCGACCTTGTGCTTTGGGAGTGCTGGTCCAAGGGCGTTAATGGACACGGTGGCTTAGT [Omicron Particle Aptamer]
Kd ([2]; 5' hexynyl): 0.01 pM
